The test deals with E2 ectodomain of HCV strain 1a154 (Hepatitis C virus genotype 1a, isolate …, strain). The test can be described thus: ELISA. (ELISA stands for enzyme-linked immunosorbent assay.)

B1: HEPC108 IgG (antibody, V domains shown)
VH: QVQLVQSGAEVKKPGSSVKVSCKASGDTFSSSAISWVRQAPGQGLEWMGGSIPIFGATKYAQKFQGRVTITTDKSTSTAYMELSSLRFEDTAVYYCARASIVNISGFVRFRFDSWGQGTLVTVSS
VL: DIQMTQSPSSLSASVGDRVTITCQASQDISNYLNWYQQKPGKAPKLLIYDVSNLEIGVPSRFSGSGSGTEFTLTINSLQPEDLATYFCQHYDDVPPVYTFGQGTSLEIK
For the molecule B1, the binding result is reported as “binds”.

The record behind these values is article doi:10.1101/2025.08.04.668577 (bioRxiv, 2025).
